Laboratory results: WO2019006280A1 (dated 2019)

Biological target: T1, cell-surface CD33 on the CD33-positive AML cell line MV4-11 (UniProt P20138 18-364)
T1 construct: whole, on cells; Endogenous CD33 of the MV4-11 cell line; also called cell-surface expressed CD33; CD33-postive MV4-11 cells
Assay: flow cytometry on MV4-11 cells, binder at 10 ug/ml, PE anti-flag

T1 sequence (P20138 18-364 limits assumed): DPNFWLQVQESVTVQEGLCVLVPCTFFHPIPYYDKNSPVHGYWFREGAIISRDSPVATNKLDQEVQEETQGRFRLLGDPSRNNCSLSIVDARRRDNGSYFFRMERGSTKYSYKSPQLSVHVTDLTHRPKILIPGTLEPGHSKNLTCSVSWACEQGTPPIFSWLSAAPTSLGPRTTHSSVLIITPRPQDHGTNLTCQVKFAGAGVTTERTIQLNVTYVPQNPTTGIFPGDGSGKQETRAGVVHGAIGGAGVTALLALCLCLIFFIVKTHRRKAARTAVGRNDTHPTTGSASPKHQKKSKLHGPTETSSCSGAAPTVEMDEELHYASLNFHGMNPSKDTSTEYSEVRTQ

binding result: binds
B1: ml033-2 VH domain antibody (VHH)
VHH: EVQLVESGGGLVQPGGSLRLSCAASGFTFSSYGMSWVRQAPRKGLEWIGEINHSGSTNYNPSLKSRVTISRDNSKNTLYLQMNSLRAEDTATYYCARPLNYYYYYMDVWGKGTTVTVSS
notes: also called single domain antibody ml 033-2; m1033-2; not shown: His and Flag tags
